This is an account of results in paper PMC5915679.

Bounds are passed on as bounds.

In assay [1] the target is hGW182 ABD (455–841) with motif-1 and motif-2 deleted (human) (UniProt Q8NDV7). In words: SEC. In general terms: SEC sorts molecules by how far they enter the pores of the column.
Assay [2] addresses hGW182 ABD (455–841) with motif-1 and the hook deleted (human) (UniProt Q8NDV7). Briefly: SEC.
Assay [3] deals with hGW182 ABD (455–841) with motif-1 deleted (human) (UniProt Q8NDV7). Briefly: SEC.
The target in assay [4] is hGW182 ABD (455–841) with motif-2 and the hook deleted (human) (UniProt Q8NDV7). Briefly: SEC.
The target of assay [5] is hGW182 ABD (455–841) with the hook deleted (human) (UniProt Q8NDV7). Briefly: SEC.
Assay [6] concerns the target hGW182 ABD (455–841), tandem tryptophans of motif-1 and the hook mutated to alanine (human) (UniProt Q8NDV7). Briefly: pull-down.
Assay [7] deals with hGW182 ABD (455–841), tandem tryptophans of motif-2 and the hook mutated to alanine (human) (UniProt Q8NDV7). Briefly: pull-down.

In the case of “human Argonaute-2 (from UniProt Q9UKV8 1-859) (natural protein)”, the stoichiometry N in assay [1] amounted to 1; in assay [2], 1; in assay [3], 2; in assay [4] it was 1; in assay [5] it was 2. The percent reduction of binding against the wild-type ABD in assay [6] and in assay [7] was less than 10% throughout.

The term stoichiometry N denotes a count of units in the complex or per binding partner.
